This experiment concerns the target T1, Axl-Fc (R&D Systems) (UniProt P30530-2 26-440, limits assumed).
T1 construct: Bought reagent (R&D Systems, Minneapolis); also called Axl-Fc receptor; not shown: Fc part of the bought fusion
T1 sequence (looked up): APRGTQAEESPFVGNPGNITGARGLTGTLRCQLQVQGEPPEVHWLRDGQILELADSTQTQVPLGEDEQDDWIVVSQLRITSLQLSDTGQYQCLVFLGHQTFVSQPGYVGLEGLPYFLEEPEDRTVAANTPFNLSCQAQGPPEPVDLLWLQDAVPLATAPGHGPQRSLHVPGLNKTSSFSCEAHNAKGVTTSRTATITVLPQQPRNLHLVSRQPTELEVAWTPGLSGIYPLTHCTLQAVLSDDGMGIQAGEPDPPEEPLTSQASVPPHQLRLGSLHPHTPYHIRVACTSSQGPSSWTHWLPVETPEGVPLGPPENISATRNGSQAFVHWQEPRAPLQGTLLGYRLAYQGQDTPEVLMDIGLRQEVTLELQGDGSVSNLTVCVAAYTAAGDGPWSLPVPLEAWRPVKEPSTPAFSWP
The experiment is described as follows: EIA: plate coated with Axl-Fc, Gas6_Flag detected with HRP anti-Flag M2 antibody, OD490.

Our source for the EC50 values is patent publication US20040157774A1 (published 2004).

B1: human Gas6_Flag (human Growth Arrest Specific Gene 6 protein with a Flag epitope tag at the C-terminus) (ligand)
chain: ALLPAREATQFLRPRQRRAFQVFEEAKQGHLERECVEELCSREEAREVFENDPETDYFYPRYLDCINKYGSPYTKNSGFATCVQNLPDQCTPNPCDRKGTQACQDLMGNFFCLCKAGWGGRLCDKDVNECSQENGGCLQICHNKPGSFHCSCHSGFELSSDGRTCQDIDECADSEACGEARCKNLPGSYSCLCDEGFAYSSQEKACRDVDECLQGRCEQVCVNSPGSYTCHCDGRGGLKLSQDMDTCEDILPCVPFSVAKSVKSLYLGRMFSGTPVIRLRFKRLQPTRLVAEFDFRTFDPEGILLFAGGHQDSTWIVLALRAGRLELQLRYNGVGRVTSSGPVINHGMWQTISVEELARNLVIKVNRDAVMKIAVAGDLFQPERGLYHLNLTVGGIPFHEKDLVQPINPRLDGCMRSWNWLNGEDTTIQETVKVNTRMQCFSVTERGSFYPGSGFAFYSLDYMRTPLDVGTESTWEVEVVAHIRPAADTGVLFALWAPDLRAVPLSVALVDYHSTKKLKKQLVVLAVEHTALALMEIKVCDGQEHVVTVSLRDGEATLEVDGTRGQSEVSAAQLQERLAVLERHLRSPVLTFAGGLPDVPVTSAPVTAFYRGCMTLEVNRRLLDLDEAAYKHSDITAHSCPPVEPAAADYKDDDDK
notes: Expressed from full-length cDNA in HEK293 cells grown with vitamin K1 and purified on anti-Flag M2 resin; 2'; also called Gas6_tag
For B1, the concentration for a half-maximal effect (EC50) (in general, the concentration needed to bring the measured effect to its halfway point) is ~0.02 µg/mL.
